Drawing on paper doi:10.1101/388868, this text covers Kd for 1 molecule.

As a reminder, the Kd is the equilibrium constant for the complex coming apart.

The target in this assay is C. elegans UNC-13 long isoform residues 1-258 bearing the K49E mutation (C. elegans). As to the kind of experiment: ITC. For orientation: In ITC the heat of successive injections is recorded.

B1: C. elegans UNC-10 residues 62-121 WT (domain or fragment)
chain: KLVGTQDDAICQICQKTKFADGIGHKCFYCQLRSCARCGGRAQSKNKAIWACSLCQKRQQ
Molecule B1 had a Kd of 1.29 µM.
